Patent US20220306690A1 (CURATORS OF THE UNIVERSITY OF MISSOURI, published 2022)

What was measured:
[1] = biological target: T1, HIV-1 capsid protein (CA) hexamer (HIV-1, UniProt O12157 131-361, fluorescently labeled with Alexa Fluor 647 analog NT647 (site of labeling not stated)); assay: MicroScale Thermophoresis; 200 nM NT647-labeled CA-hexamers, Pep-2-cyclic titrated 1 nM to 2000 nM; fit to quadratic equation
T1 construct: also called CA-hexamers

[2] = biological target: T1, HIV-1 capsid protein (CA) hexamer; assay: MicroScale Thermophoresis (MST), 200 nM NT647-labelled CA-hexamers, Pep-2-cyclic titrated 1 nM to 2000 nM [B panel A]
[3] = biological target: T1, HIV-1 capsid protein (CA) hexamer; assay: MicroScale Thermophoresis; Kd of Pep-2-cyclic (32 nM) against Kd of small molecule PF74 ([…] nM) on CA-hexamers

B1: Pep-2-cyclic: Cyc(SGVFTFGPVNFPG) (peptide)
peptide: SGVFTFGPVNFPG
modifications: head-to-tail cyclic: cyclized by coupling the C-terminal carboxylic acid and the N-terminal amino group
With B1 the Kd [1] was 32 nM, the “EC50 (read off the curve)” value [2] was roughly 70 nM and the “fold greater affinity than PF74” value [3] was roughly 7 fold.
